Measured values taken from paper doi:10.1101/266833 (bioRxiv, 2018).

Target: T1, yUpf1-HD (220-851) (S. cerevisiae, UniProt P30771 220-851)
T1 sequence (looked up): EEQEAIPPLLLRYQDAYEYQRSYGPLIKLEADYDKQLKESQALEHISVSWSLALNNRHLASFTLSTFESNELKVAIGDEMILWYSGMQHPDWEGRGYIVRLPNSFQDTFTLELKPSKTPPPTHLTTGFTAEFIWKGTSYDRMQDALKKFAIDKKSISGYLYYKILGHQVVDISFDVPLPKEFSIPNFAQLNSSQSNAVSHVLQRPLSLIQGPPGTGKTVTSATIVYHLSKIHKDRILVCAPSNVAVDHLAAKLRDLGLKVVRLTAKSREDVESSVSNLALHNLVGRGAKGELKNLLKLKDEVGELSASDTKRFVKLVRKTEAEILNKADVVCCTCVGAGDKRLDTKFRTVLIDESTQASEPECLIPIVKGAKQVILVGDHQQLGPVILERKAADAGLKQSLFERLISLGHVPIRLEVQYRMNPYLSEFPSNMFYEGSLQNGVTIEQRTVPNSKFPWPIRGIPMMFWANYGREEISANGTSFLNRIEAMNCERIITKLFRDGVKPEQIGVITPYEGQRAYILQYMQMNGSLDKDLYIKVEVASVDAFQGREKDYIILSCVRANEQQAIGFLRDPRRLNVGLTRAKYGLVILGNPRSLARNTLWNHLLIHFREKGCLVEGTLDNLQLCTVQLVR
Test: pull-down

- binding result: binds
B1: CBP-Nmd4 (natural protein, S. cerevisiae, UniProt Q12129 1-218, looked up)
chain: MTQYNFIIDASAFEKGLGNIKRWCSDCTEAVTLNFYIPTFTLNELDFLQQRRKSFAARESLKFIDRLDDSKFANLKVFIEFPEVLDIILWSDVMEHNDSSGKINIAKLPKRLKNLLKSCIYKCYLEGNEGLHWFLISEDPQIREMAMQCNIPSCSIVDVDSILSKDMNDKSFRESEKFNNMMLKNGTKEESENGREIIRTNFNKTVYASRGTGELWSP
